# Data: the DeepSol protein solubility set
# Experiment: soluble on expression in E. coli; label from the status in PepcDB or PDB records
row,Sequence,soluble on expression in E. coli
1,LAAGQLADLVVLSKDYFSVAEEEIKGIESVLTVVDGKVVYAAGHFSPLAPPPIPVLPEWSPVVKVPGHYRSAPPATAKIGAMVQMHQCCGSCGVHGHQHDIARKSSIPVSDEQAFWGVLGCSCFA,not soluble
2,LARMSEREIDISLGTTVGRSLWRLAQGHDDREVAPRAIAKQISVEHTYPKDLVTSRAVDTAIIRASRESHRRLLDDGRGARTVSVKLRMADFRIESRSATLPYATDNLDTVTATALKLARYPDEVGPIRLVGVGLSGLEDARQDILFPELDRVVPVKDTDFEVGVSDPHDSDLEISTTDESPTAIGWRATQDIWHPDYGHGWVQGLGHGKITVRFETRTTGPGKVRTFDTNDALLSSADPINSLDWS,not soluble
3,LARPKLAVVGSRNASQMGVAAVKKIIQDLSKQFVIISGLARGIDTAAHLASLKSGGATIAVIGTGLDVHYPKENRRLQDYIAKNHLLLSEYEAQSQPLKYHFPERNRIIAGLSQGVMVAEAKIRSGSLITCERAMEEGRDVFVVPGNILDGQSEGCHHLIQEGAKCITSGFDILNEFNF,not soluble
4,LGSGTTEDVSDLPVEEQLRRLQEERTCKVCMDKEVSIVFIPCGHLVVCKDCAPSLRKCPICRSTIKGTVRTFLS,soluble
5,LIIGVTGCPAGIAHTYLAAEALEKGAAALGFEIKVETNGSIGVKNSPSAEEIERAEAIVVACDKQVDMARFAGKRLIKTNVKAPIRDAQKLINEALRAPTY,not soluble
6,LKASGVQAQMAKQQEQDPTNLYISNLPLSMDEQELENMLKPFGQVISTRILRDSSGTSRGVGFARMESTEKCEAVIGHFNGKFIKTPPGVSAPTEPLLCKF,soluble
7,LKFGTSWKEAYGTGWLIDWKDVKQDNKFTAYLATNLHVADSLRNKDDYKPYNKDGNQKEFLPGDITTEFSLGKYIDA,not soluble
8,LKVSEPAPKGFLIIGANDVARQVGLAIAKYDCRVVVTDSNWDYIRQARMTGLEHYYGNPISSHAEDYLNLIGIGHVLALSPDKHFNIMACMQFLSDFGDKRVFCLNDNPTNNVSEKHLVAQEYHGLPFLGGEVSYKKLASLVGQGAEVKHTKLS,not soluble
9,LLWPNYMRPLPAFSILQFDPLTRPGGALRVERDTPVESRPVGEVACRFRTCYATEVLPLVLEALNYSVTGEGALLGLRLAMNCDGHLGELGLSRLRLHLAGERYISQMLYLCLLRNLESIQLIPLDAHGRPLDGVAGKPMSFRLTGERVQPVGFAEDEALIPYPLNTFRGYRYLQEYFAFQDKFLFVDVDGLDLLGALPEETLKQVRGLELRFDIRKSGIQRLHPTLENVKLYCTPVANLFRHDALPIRLDGKQDEYLLMPAEYSLEDCGVFSVEGVTGWRPGGLGYQAYVPFESFEHDPSFDVPEARPHYSVRQRTSLLHDGLDTYLSFGIRHPEQIETLSVELTCTNQNLPQRLRLGDICVACEGTPEFLGFRNITPATPSYAPPLNRDFLWKLISNMSLNYLSLANVDALKVILETYDLPRYYDQHAAKVSKRLLGGLKAVRHEHVDRLHRGLPLRGLRTELTIDPEGYIGEGDLFVFASVLNEFFALYASINSYHELRVRSTQGDVYQWKPRMG,not soluble
10,LMENGPEFKIEVSILKDVATVMIDTTGSSLFKRGYRTEKGGAPIKENMAAAILQLSNWYPDKPLIDPTCGSGTFCIEAVMIARKMAPGLRRSFAFEEWNWISDRLIQEVRTEAAKKVDRELELDIMGCDIDARMVEIAKANAQVAGVAGDITFKQMRVQDLRSDKINGVIISNPPYGERLSDDAGVTKLYAEMGQVFAPLKTWSKFILTSDEAFESKYGSQADKKRKLYNGTLKVDLYQYFGQRVKRQEVK,not soluble
11,LMVGGLLLAAASNNVQAEALQPDPAWQQGKLDNGFSWQLLATPQRPSDRIELRLIVNTGSLSENTQEVGFAHLLPRLALMSSASFTPAQLQSLWQQGIDNERPLPPAITSYDFTLYSLSLPNNRPDLLKDALAWLSDTAGNLAVSEQTVNAALNTATDPIATFPQNIQEPWWRYRLKGSSLIGHDPGQPVTQPVDVEKLKQFYQQWYTPDAMTLYVVGNVDSRSIAAQISKAFSELKGKRTAPAAVATLAPLPPEPVSLMNEQAAQDTLSLMWDTPWHPIQDSMALSRYWRSDLAREALFWHIKQVLEKNNQKNLKLGFDCRVQYQRAQCAIHLNTPVENLTANMTFVARELAALRANGLSQAEFDALMTQKNDQLSKLFATYARTDTDILMSQRLRSQQSGVVDIAPEQYQKLRQAFLSGLTLAELNRELKQQLSQDTTLVLMQPKGEPEVNVKALQEIYNGIMAPQTVAEEEVAPAEAVETAPVMPTTAQ,soluble
12,LNKTVKHMWPFICQFIEKLFRETIEPAVRGANTHLSTFSFTKVDVGQQPLRINGVKVYTENVDKRQIILDLQISFVGNCEIDLEIKRYFCRAGVKSIQIHGTMRVILEPLIGDMPLVGALSIFFLRKPLLEINWTGLTNLLDVPGLNGLSDTIILDIISNYLVLPNRITVPLVSEVQIAQLRFPVPKGVLRIHFIEAQDLQGKDTYLKGLVKGKSDPYGIIRVGNQIFQSRVIKENLSPKWNEVYEALVYEHPGQELEIELFDEDPDKDDFLGSLMIDLIEVEKERLLDEWFTLDEVPKGKLHLRLEWLTLMPNASNLDKVLTDIKADKDQANDGLSSALLILYLDSARNLPSGKKISSNPNPVVQMSVGHKAQESKIRYKTNEPVWEENFTFFIHNPKRQDLEVEVRDEQHQCSLGNLKVPLSQLLTSEDMTVSQRFQLSNSGPNSTIKMKIALRVLHLEKRERPPDHQHSAQVKRPSVSKEGRKTSIKSHMSGSPGPGGSNTAPSTPVIGGSDKPGMEEKAQPPEAGPQGLHDLGRSSSSLLASPGHISVKEPTPSIASDISLPIATQELRQRLRQLENGTTLGQSPLGQIQLTIRHSSQRNKLIVVVHACRNLIAFSEDGSDPYVRMYLLPDKRRSGRRKTHVSKKTLNPVFDQSFDFSVSLPEVQRRTLDVAVKNSGGFLSKDKGLLGKVLVALASEELAKGWTQWYDLTEDGTRPQAMT,soluble
13,LPDLRRRVLSGPLFAWFQKVLPPMSDTEREAIEAGTVWWDGELFSGRPDWQKLLDYPKAQLTEEEQAFVDGPTEELCAMVSDWDIGQRMDLPEEAWAFIKQHGFFGLIIPKEYGGKGFSAFAHSQVVMKLATRSGDLASTVMVPNSLGPAELLLHYGTDEQRQRYLPSLAKGDDIPCFALTGPYAGSDAGGMTDVGIVCKGEWEGREVLGLRLTWEKRYITLGPVATLLGLAFKCHDPDHLLGDEEDLGITLALIPTDTPGVEIGRRHVPLGAAFMNGPNSGKDVFVPLEYIIGGQEMIGKGWMMLMNCLSVGRSISLPAVGTSAGKASSYVSGRYAQVREQFNVPIAAFEGIQEALARIGGNAWLMDSARILTANAVDLGEKPSVLSAILKYHLTERGRECIAHAMDIHGGKGIIMGPNNYLGRSWQGAPIFITVEGANILSRNLMIFGQGAIRCHPYVLKEMELAQREDKDQAAREFDA,not soluble
14,LRIYSADNLLIGEFGEERRDFIKIEEVPKSLKQAILAAEDDRFYQHYGVDYIGVLRAIYSNFKAGGAHQGASTITMQVARNFFLTKEKTLTRKFSEALLAFKIEHSLEKDQILELYINQIYLGQRSYGFSSAAQSYFGKQLTDINLAEAAMLAGLPKAPSRFNPIVNL,not soluble
15,LRYNLWFGVYDGKEIKLSENFEESFLKAENPSPLPFNVSEVGAKALGKDYYRILRKTALAVSEKMVEKELRREDRYVVALVKALEEIDESINMLNEKLEDIRAVKESEITEKFEKKIRELRELRRDVEREIEEVMEKIAPNMTELVGAKVAAKLLERAGSMERLVRLPASKIQVIGAEKSLYKAFARMKKGKKAKIPKHGIIFLHPFIRTLPKAKRGKMARFLAAKLAIAAKIDYFRGEIDESLYESIRRRYEELRRK,soluble
16,LTGFQVGPMLQYQTGFHGIVLDFSLLYVERGIKLTNTSNRRSADIKTQSIDIPIELKWEMGMSNNFDLFLGVGPSFSFLVDKDNWGRKLAHIAVDVIDKDLPSMGWRSTEVGLNLGGGVKIVNHLMVSCYYNIGLTQSAKHNIGGNKHDAIDQIFDGDVFESKNRYWQLSLAYVF,not soluble
17,LVDGSLCELRYSWAKIDTYQHVNNFITLNQVKIALAQSRCHNHHLDSTTITVWYDSAFSVMRDLKGIGANHVSGRSHGLTSRRTLLQVERAYQAFKNDQGLLPATYQVCFGVIHL,not soluble
18,LWHASIAIVGSRQPSAGGLDHSYGFAQALAARGLGIISGMAAGIDATAHEAALSIPSGHTVAVLGTGPDVPYPARHKKLHARITTDGAVISEYPPGTQPRAAHFPQRNRIIAGLALGTLVVEAGARSGALITARLAAEAGRAVFAVPGSLHNPMTRGCHQLIRQGATLVQDIDQILED,not soluble
19,MAAALPRTLGELQLYRILQKANLLSYFDAFIQQGGDDVQQLCEAGEEEFLEIMALVGMASKPLHVRRLQKALRDWVTNPGLFNQPLTSLPVSSIPIYKLPEGSPTWLGISCSSYERSSNAREPHLKIPKCAATTCVQSLGQGKSDVVGSLALQSVGESRLWQGHHATESEHSLSPADLGSPASPKESSEALDAAAALSVAECVERMAPTLPKSDLNEVKELLKTNKKLAKMIGHIFEMNDDDPHKEEEIRKYSAIYGRFDSKRKDGKHLTLHELTVNEAAAQLCVKDNALLTRRDELFALARQISREVTYKYTYRTTKSKCGERDELSPKRIKVEDGFPDFQDSVQTLFQQARAKSEELAALSSQQPEKVMAKQMEFLCNQAGYERLQHAERRLSAGLYRQSSEEHSPNGLTSDNSDGQGERPLNLRMPNLQNRQPHHFVVDGELSRLYPSEAKSHSSESLGILKDYPHSAFTLEKKVIKTEPEDSR,soluble
20,MAAFMEEALVEARRARDAGEVPVGCVFVHGDKVVARGGNEVNVHRNATRHAEFICIDAILASCRERRLPARQLFSEITVVVTVEPCIMCSAALHTLGVKEIIYGCENDRFGGKTVVDVAAVVGHRIEITGGVRADEAMALLKDFYKGDNPAAPPQAKKKKLEHHHHHH,soluble
21,MAAGSEATTPVIVAAGAGGEEGEHVKPFKPEKAKEIIMSLQQPAIFCNMVFDWPARHWNAKYLSQVLHGKQIRFRMGMKSMSTVPQFETTCNYVEATLEEFLTWNCDQSSISGPFRDYDHSKFWAYADYKYFVSLFEDKTDLFQDVKWSDFGFPGRNGQESTLWIGSLGAHTPCHLDSYGCNLVFQVQGRKRWHLFPPEDTPFLYPTRIPYEESSVFSKINVVNPDLKRFPQFRKAQRHAVTLSPGQVLFVPRHWWHYVESIDPVTVSINSWIELEEDHLARVEEAITRMLVCALKTAENPQNTRAWLNPTEVEETSHAVNCCYLNAAVSAFFDRCRTSEVVEIQALRTDGEHMKKEELNVCNHMEVGQTGSQNLTTGTDKPEAASPFGPDLVPVAQRSEEPPSERGGIFGSDGKDFVDKDGEHFGKLHCAKRQQIMSNSENAIEEQIASNTTTTPQTFISTDDLLDCLVNPQVTRIVAQLLIQGRSL,not soluble
22,MAAKLEKTTNSFEVITREWYAKFSPTWNESHGERIIRRFERDIFPWIGSKPISEIAAPELLATVRRIESRGAVETAHRALGNCGQVFRYAIATARATRDISADLRGALPPVKGEHLEHHHHHH,soluble
23,MAAMPKPAAFWNDRFANEEYVYGEAPNRFVASAARTWLPEAGEVLLLGAGEGRNAVHLAREGHTVTAVDYAVEGLRKTERLATEAGVEVEAIQADVREWKPARAWDAVVVTFLHLPADERPGLYRLVQRCLRPGGRLVAEWFRPEQRTDGYTSGGPPDPAMMVTADELRGHFAEAGIDHLEAAEPTLDEGMHRGPAATVRLVWCRPSTSLEHHHHHH,soluble
